Patent US20220227882A1 (TRUSTEES OF TUFTS COLLEGE, published 2022)

T1: Recombinant human ADAM12 (Acro Biosystems, AD2-H5228) (human, UniProt O43184 208-708)
T1 sequence (looked up): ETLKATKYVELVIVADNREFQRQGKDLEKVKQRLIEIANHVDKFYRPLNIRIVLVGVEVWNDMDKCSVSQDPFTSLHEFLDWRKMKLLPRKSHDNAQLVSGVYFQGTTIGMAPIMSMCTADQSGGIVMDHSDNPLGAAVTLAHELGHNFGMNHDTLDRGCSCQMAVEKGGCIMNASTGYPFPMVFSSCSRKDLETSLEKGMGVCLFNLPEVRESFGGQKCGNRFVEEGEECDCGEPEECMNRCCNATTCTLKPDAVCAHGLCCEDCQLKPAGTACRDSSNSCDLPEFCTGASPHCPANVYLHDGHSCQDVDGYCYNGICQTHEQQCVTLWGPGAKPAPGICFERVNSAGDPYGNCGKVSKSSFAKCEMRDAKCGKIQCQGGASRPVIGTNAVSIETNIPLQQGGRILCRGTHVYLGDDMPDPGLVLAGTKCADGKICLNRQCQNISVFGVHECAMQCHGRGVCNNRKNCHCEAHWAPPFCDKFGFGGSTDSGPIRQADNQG

T2: Recombinant human ADAM15 (Sino Biological, 10517-H08H) (human, UniProt Q13444 18-696)
T2 sequence (looked up): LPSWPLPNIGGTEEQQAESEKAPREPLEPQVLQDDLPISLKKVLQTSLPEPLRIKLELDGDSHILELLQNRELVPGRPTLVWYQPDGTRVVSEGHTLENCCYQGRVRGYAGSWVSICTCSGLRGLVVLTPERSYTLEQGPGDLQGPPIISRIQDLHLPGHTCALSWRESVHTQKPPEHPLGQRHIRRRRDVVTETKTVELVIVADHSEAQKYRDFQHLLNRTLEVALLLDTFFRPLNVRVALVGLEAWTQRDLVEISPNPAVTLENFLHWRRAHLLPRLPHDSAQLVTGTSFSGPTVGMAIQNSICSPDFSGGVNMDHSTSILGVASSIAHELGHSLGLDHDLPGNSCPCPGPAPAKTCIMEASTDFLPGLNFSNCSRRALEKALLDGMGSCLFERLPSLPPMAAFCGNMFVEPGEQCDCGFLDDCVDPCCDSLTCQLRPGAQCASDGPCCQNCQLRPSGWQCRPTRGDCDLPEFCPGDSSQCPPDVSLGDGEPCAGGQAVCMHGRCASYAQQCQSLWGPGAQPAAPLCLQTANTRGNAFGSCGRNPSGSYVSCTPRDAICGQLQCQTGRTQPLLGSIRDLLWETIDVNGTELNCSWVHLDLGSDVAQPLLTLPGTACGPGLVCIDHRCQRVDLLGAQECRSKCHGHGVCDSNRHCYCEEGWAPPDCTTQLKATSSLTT

T3: Recombinant human ADAM8 (rHuADAM8) ectodomain protein (aa 17-497), ACRO Biosystems AD8-H5223 (human, UniProt P78325 17-497)
T3 construct: Bought protein made in HEK293 cells; The protein clips off its own prodomain (aa 17-191); also called rhADAM8; immunogen
T3 sequence: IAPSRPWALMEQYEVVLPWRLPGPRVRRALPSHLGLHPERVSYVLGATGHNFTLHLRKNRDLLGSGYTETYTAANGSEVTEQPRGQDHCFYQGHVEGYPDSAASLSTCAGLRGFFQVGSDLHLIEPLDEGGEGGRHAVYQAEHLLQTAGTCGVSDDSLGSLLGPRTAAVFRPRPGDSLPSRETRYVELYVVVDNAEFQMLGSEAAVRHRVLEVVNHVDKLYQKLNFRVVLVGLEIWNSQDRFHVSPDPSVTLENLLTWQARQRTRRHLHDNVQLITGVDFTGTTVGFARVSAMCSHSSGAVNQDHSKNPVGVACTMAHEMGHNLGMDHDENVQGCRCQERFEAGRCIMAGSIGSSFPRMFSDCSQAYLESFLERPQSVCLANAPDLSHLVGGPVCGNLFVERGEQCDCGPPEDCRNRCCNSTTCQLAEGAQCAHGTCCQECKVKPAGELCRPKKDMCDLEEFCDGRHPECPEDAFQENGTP

B1: ADP2 (antibody, V domains shown)
VH: EVKLVESGGGLVQPGGSLSLSCAASGFSFPDYYMSWVRQPPGKALEWLGFIRDSANGYTTEYIASVKGRFTFSRDNSQSILYLQMNALRAEDSATYYCARYSRYYGMDYWGQGTSVTVSS
VL: SIVMTQTPKILLVSAGDRVTITCKASQTVNYDVAWYQQKPGQSPKPVIYFASNRYTGVPDRFTGSGFGTDFTFTISTVQAEDLAVYFCQQDYSAPWTFGGGTKLEIK
notes: also called mADP2; mouse ADP2
B2: ADP3 (antibody, IgG1, V domains shown)
VH: EVKLEESGGGLVQPGGSMKLSCAASGFTFSDAWMDWVRQSPEKGLEWVAEIRGKVNNLATYYVESVKGRFTISRDDSKSSVYLQMNSLRAEDTGIYYCLGRYDATYAMDYWGQGTSVTVSS
VL: DVVMTQTPLSLPVSLGDQASISCRSSQSLVHSDGNTYLHWYLQKPGQSPKLLIYKLSNRFSGVPDRFSGSGSGTDFTLKISRVEAEDLGVYFCSQSTHVPWTFGGGTKLEIK
B3: ADP13 (antibody, IgG1, V domains shown)
VH: EVQLQQSGPEMVKPGTSVKISCKASGYTFTDYYINWVKQSHGKSLEWIGDISPNIGGATYNPKFKGKAILTVDKSARTAYMELRSLTSEDSAVYCCTRGGSSYPYFYAMDYWGQGTSVTVSS
VL: DIVMSQSPSSLAVSVGEKVTMSCKSSQSLLYSSNQKKYLAWYQQKPGQSPKLLIYWASTRESGVPDRFTGSGSGTDFTLTISSVKAEDLAVYYCQQFYSYPYTFGGGTKLEINR
notes: also called mADP13; mouse ADP13

Key:
[1] = target: T1, Recombinant human ADAM12 (Acro …); assay: ELISA, coated recombinant ADAM12
[2] = target: T2, Recombinant human ADAM15 (Sino …); assay: ELISA, coated recombinant ADAM15
[3] = target: T3, Recombinant human ADAM8 (rHuADAM8) …; assay: adhesion of α9β1 integrin CHO cells to coated rHuADAM8, antibody 20 µg/ml, vs isotype control IgG; mean ± S.D., n=3
From the text: To mimic this process and evaluate both the presence of an active DI domain on rHuADAM8 and the ability of ADPs to inhibit this activity in vitro, adhesion of Chinese Hamster Ovary (CHO) cells expressing α9β1 integrin vs the negative control αvβ3 integrin was used (Rao et al., J Bone Miner Res, 21(10): 1657-1665, 2006). CHO cells were maintained in DMEM high glucose (Invitrogen) supplemented with 10% FBS, 1% penicillin/streptomycin (Hyclone), L-glutamine (Gibco), non-essential amino acids (Gibco) and 100 μg/ml G418 (Teknova). Adhesion of CHO cells expressing α9β1 integrin or αvβ3 integrin to plates coated with rHuADAM8 (Acro Biosystems, AD8-H5223) was assessed as follows. Briefly, 96-well plates were coated overnight with 1.5 μg of rHuADAM8 per well, blocked with 1% BSA and washed with PBS.
To assess the ability of ADPs to inhibit DI activity, 96-well plates coated with rHuADAM8 as above were pre-treated in duplicate for 2 hours with either PBS, 20 μg/ml of dialyzed or protein A purified ADP, MAB1031 or control isotype-matched IgGs. Unattached cells were washed off and attached cells counted as above.

Binder | OD 450nm [1] [OD450nm] | binding result [1] | OD 450nm [2] [OD450nm] | % inhibition of α9β1 integrin binding to ADAM8 [3] [% inhibition] | binding result [2]
B1 | 0.14 | no binding (tested: 1 µg/ml) | 0.16 | 72 | –
B2 | 0.16 | – | 0.17 | 69.3 | no binding (tested: 1 µg/ml)
B3 | 0.12 | no binding (tested: 1 µg/ml) | 0.09 | 78.5 | no binding (tested: 1 µg/ml)
